Biological target: fusion protein F of hMPV A2-GFP (CAN97-83) on infected cells (human metapneumovirus A2 (CAN97-83))

B1: sdHMPV12 (VHH)
VHH: QVQLQESGGGLVQPGGSLRLSCAASGVSLAWYAIGWFRQAPGKDREGISCISASDDSTYYRDSVKGRVTISRDNGRNTVLLQMNSLKPEDTAVYYCATLRANYCSGPPTLGPYLGQGTQVTVSS
Question: With B1 as the binder, how does the other read?
Answer: 9 nM
